In patent US20150118239A1 (GEORG AUGUST UNIVERSIT T G TTINGEN STIFTUNG FFENTLICHEN …, published 2015):

Tests used:
[1] = molecular target: T1, Aβ4-42 low molecular weight (LMW) oligomers (human); assay: native Western blot, sensitivity test
T1 construct: otherwise only LMW oligomers; also called Aβ4-42 oligomers

[2] = molecular target: T2, AβpE3-42 low molecular weight (LMW) oligomers (human, N-terminal pyroglutamate at Aβ position 3 (pE3)); assay: native Western blot, sensitivity test
T2 construct: otherwise only LMW oligomers

[3] = molecular target: T3, Aβ4-10 (human); assay: hybridoma screening ELISA
T3 construct: Screening peptide of the hybridoma ELISA
T3 peptide: FRHDSGY

[4] = molecular target: T4, Aβ36-40 (human); assay: hybridoma screening ELISA
T4 construct: Counter-screening peptide of the hybridoma ELISA
T4 peptide: VGGVV

[5] = molecular target: T5, Aβ2-17 (human); assay: pepscan ELISA, coated 16-mer peptides, antibody 7 µg/ml
T5 construct: Pepscan 16-mer
T5 peptide: AEFRHDSGYEVHHQKL

[6] = molecular target: T6, Aβ3-18 (human); assay: as above
T6 construct: Pepscan 16-mer
T6 peptide: EFRHDSGYEVHHQKLV

[7] = molecular target: T7, Aβ4-19 (human); assay: as above
T7 construct: Pepscan 16-mer
T7 peptide: FRHDSGYEVHHQKLVF

[8] = molecular target: T8, Prion protein (PrP) deposits (human, UniProt P04156 23-230); assay: IHC, brain sections of non-AD neurodegenerative disorders
T8 construct: also called PrP immunopositive amyloid plaques, synaptic, plaque-like and perineuronal deposits

[9] = molecular target: α-Synuclein aggregates (Lewy bodies, Lewy neurites, glial cytoplasmic inclusions) (human, UniProt P37840 1-140); assay: as above
[10] = molecular target: T9, Phospho-TDP-43 neuronal cytoplasmic and neuritic deposits (human, UniProt Q13148 1-414, limits assumed, phosphorylated, sites not stated); assay: as above
T9 construct: Tissue aggregates in patients' brain sections

[11] = molecular target: T10, Phospho-Tau aggregates (tufted astrocytes in PSP, Pick bodies in PiD) (human, UniProt P10636-8 2-441, limits assumed, phosphorylated, sites not stated); assay: as above
T10 construct: Tissue aggregates in patients' brain sections; also called pTau

[12] = molecular target: T11, Aβ4-38 (human); assay: native Western blot, equal amounts of freshly dissolved peptides
T11 construct: Synthetic peptide

[13] = molecular target: T12, Aβ4-40 (human); assay: as above
T12 construct: Synthetic peptide, the immunogen

[14] = molecular target: T13, Aβ5-20 (human); assay: pepscan ELISA
T13 construct: Pepscan 16-mer
T13 peptide: RHDSGYEVHHQKLVFF

[15] = molecular target: T11, Aβ4-38; assay: cell-based or functional assay
[16] = molecular target: T12, Aβ4-40; assay: cell-based or functional assay
[17] = molecular target: AβpE3-42 (human, N-terminal pyroglutamate at Aβ position 3 (pE3)); assay: cell-based or functional assay
[18] = molecular target: Aβ4-42 (human); assay: cell-based or functional assay

B1: NT4X-83 (antibody, V domains shown)
VH: EVHLQQSGAELVKPGASVKLSCTASGFNIRDTYIHWVKQRPEQGLEWIGRVDPANGNTKYDPKFQGKATITADTSSDTAYLQLSSLTAEDTAVYFCARRIYYGYALFAYWGQGTLVTVSA
VL: DIVMTQSPSSLTVTAGEKVTMSCKSSQSLLNSGNQKNYLTWYQQKPGQPPKLLIYWASTRESGVPDRFTGSGSGTDFTLTISSVQAEDLAVYYCQNDYSYPLTFGAGTKLELK
notes: also called Aβ4-40 NT4X-83; DSM ACC3161
Question: With B1 as the binder, how does the “peptide amount giving similar signal intensity” value [1] read?
Answer: The value was 500 ng.

Question: And the “peptide amount giving similar signal intensity” value [2]?
Answer: The value was 500 ng.

Question: Does B1 bind [3]?
Answer: Result: binds

Question: Does B1 bind [4]?
Answer: Result: no binding

Question: Does B1 bind [5]?
Answer: Result: binds

Question: Does B1 bind [6]?
Answer: Result: binds

Question: Does B1 bind [7]?
Answer: Result: binds

Question: Does B1 bind [8]?
Answer: Result: no binding

Question: Does B1 bind [9]?
Answer: Result: no binding

Question: Does B1 bind [10]?
Answer: Result: no binding

Question: Does B1 bind [11]?
Answer: Result: no binding

Question: Does B1 bind [12]?
Answer: Result: binds

Question: Does B1 bind [13]?
Answer: Result: binds

Question: Does B1 bind [14]?
Answer: Result: no binding (tested: 7 µg/ml)

B2: NT4X-167 (antibody, V domains shown)
VH: QVQLKQSGPGLVQPSQSLSITCTVSGFSLTSYGIHWVRQSPGKGLEWLGVMWSGGITDFYAAFISRLSISRDISKSQVFFKMNSLQADDTAIYYCARGSRYALDYWGQGTSVSVSS
VL: DIQMTQTTSSLSASLGDRVTISCRASQDISNYLNWYQQKPDGTVKLLIYYTSRLHSGVPSRFSGSGSGTDYSLTISNLEQEDIATYFCQQGNTLPPTFGGGTKLEIK
notes: also called NT4X-67
Question: How did the “peptide amount giving similar signal intensity” value [1] turn out when B2 was run?
Answer: Its value is 70 ng.

Question: And the “peptide amount giving similar signal intensity” value [2]?
Answer: Its value is 70 ng.

Question: Does B2 bind [3]?
Answer: Result: binds

Question: Does B2 bind [4]?
Answer: Result: no binding

Question: Does B2 bind [8]?
Answer: Result: no binding

Question: Does B2 bind [9]?
Answer: Result: no binding

Question: Does B2 bind [10]?
Answer: Result: no binding

Question: Does B2 bind [11]?
Answer: Result: no binding

Question: And the “viability of SH-SY5Y cells (MTS), aged 10 µM peptide with against without antibody” value (“viability … against without antibody” below) [15]?
Answer: The value was less than 0.01 p value.

Question: What about the “viability … against without antibody” value [16] of the same binder?
Answer: The value was less than 0.01 p value.

Question: And the “viability … against without antibody” value [17]?
Answer: The value was less than 0.05 p value.

Question: And the “viability … against without antibody” value [18]?
Answer: Its value is less than 0.01 p value.
